Measurements as given in patent US20100221257A1 (AstraZeneca / MedImmune, published 2010).
Changes are numbered by the printed parent chain. Each block holds one binder with its values, some of them ahead of it.

Key:
[1] = target: T1, recombinant human IL-1 R4 (ST2)/Fc (human, UniProt Q01638-2 19-328, limits assumed); test: DELFIA epitope competition; no inhibition of biotinylated huIL-1RFc binding to the adsorbed IgG
T1 construct: Bought; not shown: Fc of the bought fusion protein, not described
T1 sequence (looked up): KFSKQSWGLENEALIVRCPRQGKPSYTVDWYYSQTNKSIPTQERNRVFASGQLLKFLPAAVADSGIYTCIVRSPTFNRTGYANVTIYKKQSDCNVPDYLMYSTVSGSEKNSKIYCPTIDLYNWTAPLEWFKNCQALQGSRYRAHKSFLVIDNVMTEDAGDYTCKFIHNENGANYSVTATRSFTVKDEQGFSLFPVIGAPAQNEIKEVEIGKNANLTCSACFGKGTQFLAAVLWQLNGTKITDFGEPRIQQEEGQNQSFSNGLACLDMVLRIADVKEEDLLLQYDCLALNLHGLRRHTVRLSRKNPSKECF
Procedure: Titrations of non biotinylated purified human recombinant IL1sRII (R&D Systems), human recombinant IL-1R6/IL1 R rpt/Fc (R&D Systems), human recombinant IL18R alpha/IL-1 R5/Fc (R&D systems) and recombinant human IL-1 R4 (ST2)/Fc (R&D systems) were tested in each assay to establish the potency for each structurally related family member, as measured by IC₅₀ values in the assay.
Purified IgG were adsorbed onto 96-well Maxisorp microtitre plates (Nunc) in PBS at a concentration which gave a significant signal when biotinylated human HIS IL1RFc was added at approximately its estimated KD for that particular IgG. Excess IgG was washed away with PBS-Tween (0.1% v/v) and the wells were blocked with non-fat dried milk in PBS (3% w/v) for 1 h. […] Non-biotinylated human HIS IL1RFc was included as a positive control. 25 μl of this dilution series was added to the blocked IgG assay plate.
25 μl of 1.4 nM biotinylated human HIS IL1RFc was added to the assay plate. The plate was then sealed and incubated at room temperature for 2 h. Unbound antigen was removed by washing with PBS-Tween (0.1% v/v), while the remaining biotinylated human IL1RFc was detected by streptavidin-Europium3+ conjugate (DELFIA® detection, PerkinElmer). Time-resolved fluorescence was measured at 620 nm on an EnVision plate reader (PerkinElmer). Fluorescence data was plotted as europium counts. IC₅₀ values were determined using GraphPad Prism software by curve fitting using a four-parameter logistic equation (Equation 3).

[2] = target: T2, human IL-1R1, endogenous on human cells (HeLa cells; whole blood) (human, UniProt P14778 18-569); test: cell-based or functional assay
T2 sequence (looked up): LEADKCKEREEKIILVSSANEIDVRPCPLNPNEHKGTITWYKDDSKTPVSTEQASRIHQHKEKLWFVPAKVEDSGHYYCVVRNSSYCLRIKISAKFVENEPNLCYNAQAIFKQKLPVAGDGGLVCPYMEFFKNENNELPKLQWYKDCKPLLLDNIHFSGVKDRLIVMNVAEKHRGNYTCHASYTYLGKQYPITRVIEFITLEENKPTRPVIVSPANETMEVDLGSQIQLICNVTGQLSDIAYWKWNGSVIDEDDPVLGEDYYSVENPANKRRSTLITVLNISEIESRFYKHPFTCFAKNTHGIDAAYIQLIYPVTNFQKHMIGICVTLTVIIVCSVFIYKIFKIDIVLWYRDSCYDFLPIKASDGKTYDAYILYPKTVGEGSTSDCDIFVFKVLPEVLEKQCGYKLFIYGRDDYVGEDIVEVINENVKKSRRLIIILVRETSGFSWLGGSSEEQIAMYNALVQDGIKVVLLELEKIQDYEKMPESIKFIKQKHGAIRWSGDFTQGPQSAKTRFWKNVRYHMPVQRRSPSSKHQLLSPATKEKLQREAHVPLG

[3] = target: T2, human IL-1R1, endogenous on human cells …; test: cell-based or functional assay; remark: listed apart in the source
[4] = target: T3, cynomolgus IL-1R1, endogenous on CYNOM-K1 cells (cynomolgus monkey, UniProt A0A7N9CMI5 18-569); test: cell-based or functional assay
T3 sequence: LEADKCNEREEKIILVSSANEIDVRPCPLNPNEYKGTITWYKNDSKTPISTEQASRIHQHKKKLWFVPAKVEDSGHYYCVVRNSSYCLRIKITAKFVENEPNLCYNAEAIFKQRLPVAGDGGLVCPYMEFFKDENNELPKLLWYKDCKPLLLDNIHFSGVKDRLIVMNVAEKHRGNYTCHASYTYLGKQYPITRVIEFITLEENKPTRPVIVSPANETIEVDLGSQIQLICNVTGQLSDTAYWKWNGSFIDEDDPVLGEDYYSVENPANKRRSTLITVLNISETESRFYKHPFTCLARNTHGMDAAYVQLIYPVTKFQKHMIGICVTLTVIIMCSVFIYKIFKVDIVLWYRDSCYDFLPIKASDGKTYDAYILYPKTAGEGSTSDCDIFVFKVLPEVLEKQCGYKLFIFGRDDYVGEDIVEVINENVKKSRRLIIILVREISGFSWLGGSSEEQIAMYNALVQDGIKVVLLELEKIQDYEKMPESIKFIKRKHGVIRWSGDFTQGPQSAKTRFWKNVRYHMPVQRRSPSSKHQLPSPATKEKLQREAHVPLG

binding result [1]: no binding
IC50, inhibition of IL-1β induced IL-6 production in human whole blood, donor 1 [2]: 0.091 nM
IC50, inhibition of IL-1β induced IL-6 production in human whole blood, donor 2 [2]: 0.295 nM
IC50, inhibition of IL-1β induced IL-6 production in human whole blood, donor 3 [2]: 0.116 nM
IC50, inhibition of IL-1β induced IL-6 production in human whole blood, donor 4 [2]: 0.309 nM
IC50, inhibition of IL-1β induced IL-6 production in human whole blood, donor 5 [2]: 0.167 nM
IC50, inhibition of IL-1β induced IL-6 production in human whole blood, donor 6 [2]: 0.321 nM
mean IC50 for the 6 donors, inhibition of IL-1β induced IL-6 production in human whole blood [3]: 0.229 nM
IC50, inhibition of IL-1β induced IL-8 release from CYNOM-K1 cells, experiment 1 [4]: 0.8 nM
IC50, inhibition of IL-1β induced IL-8 release from CYNOM-K1 cells, experiment 2 [4]: 0.6 nM
B1: Antibody 6GL IgG2 (antibody, V domains shown)
VH: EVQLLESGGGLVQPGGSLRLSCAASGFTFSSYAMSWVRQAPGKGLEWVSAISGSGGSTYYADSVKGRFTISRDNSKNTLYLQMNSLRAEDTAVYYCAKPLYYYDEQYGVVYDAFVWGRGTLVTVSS
VL: QSVLTQPPSVSGAPGQRVTISCTGSSSNIGAGYDVHWYQQLPGTAPKLLIYGDTHRPSGVPDRFSGSKSGTSASLAITGLQAEDEADYYCQSYDTVRLHHVFGGGTKLTVL
notes: Germlined IgG2, lambda light chain; also called Antibody 6 IgG2; 28PL GL

binding result [1]: no binding
IC50, inhibition of IL-1β induced IL-8 release from CYNOM-K1 cells, experiment 1 [4]: 0.9 nM
IC50, inhibition of IL-1β induced IL-8 release from CYNOM-K1 cells, experiment 2 [4]: 0.7 nM
B2: Antibody 10GL IgG2 (antibody, V domains shown)
VH: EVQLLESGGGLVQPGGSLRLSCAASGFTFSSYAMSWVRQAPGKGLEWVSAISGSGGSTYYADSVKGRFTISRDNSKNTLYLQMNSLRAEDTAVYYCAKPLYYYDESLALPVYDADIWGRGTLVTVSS
VL: B1 VL with V96R, R97A, L98D, H99D, H100A, V101H
notes: Germlined IgG2, lambda light chain

binding result [1]: no binding
IC50, inhibition of IL-1β induced IL-8 release from CYNOM-K1 cells, experiment 1 [4]: 4.2 nM
IC50, inhibition of IL-1β induced IL-8 release from CYNOM-K1 cells, experiment 2 [4]: 2.5 nM
B3: Antibody 8GL IgG2 (antibody, V domains shown)
VH: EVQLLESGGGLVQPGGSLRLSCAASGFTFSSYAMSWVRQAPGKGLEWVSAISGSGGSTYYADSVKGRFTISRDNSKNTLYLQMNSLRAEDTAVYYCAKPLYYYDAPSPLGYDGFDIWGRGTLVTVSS
VL: B1 VL with V96H, R97L, L98V, H99A
notes: as for B2
